Results on 29 sequences are retold here after the supplement of paper PMC10567573.

The nature of the series: protein stability index of a GFP-peptide fusion (GPS, HEK-293T) (PSI 1-6); higher = more stable. The following applies: c terminus: a fixed tail appended.

± gives the standard deviation.
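Note: 24-mer peptide tiles fused after GFP, lentivirally expressed, FACS-sorted into six equal bins by GFP/DsRed ratio, decoded by Illumina sequencing, PSI is the read-weighted mean bin number.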

LLDATVAGGQTRLQASDRYRDLAG [FCHSD1] came in with a protein stability index (treatment: DMSO) of 3.99 ± 0.14 and a protein stability index (treatment: MLN4924 1 uM, 8 h) of 3.86 ± 0.12.

The sequence SLFCYEDQEAVCLICAISHTHRAH [TRIM39] gave a protein stability index (treatment: DMSO) of 2.15 ± 0.19 and a protein stability index (treatment: MLN4924 1 uM, 8 h) of 2.19 ± 0.2.

Take DITQEEYGEFYKSLTNDWEDHLAV [HSP90AB1]: the protein stability index (treatment: DMSO) was 3.85 ± 0.17 and the protein stability index (treatment: MLN4924 1 uM, 8 h) was determined as 4.01 ± 0.22.

Take GSAAPGSPLAADPACLGQPHTPGK [FOXJ1]: the protein stability index is 5.25 ± 0.29 (treatment: DMSO) and 5.4 ± 0.13 (treatment: MLN4924 1 uM, 8 h).

As for NKSVTLYTVKDKATGEVLGQFYLD [NLN], the protein stability index (treatment: DMSO) was found to be 2.13 ± 0.3.

As for RKPPVFDENEDVNFDHFEILRAIG [STK32A], the protein stability index by setting is: (treatment: DMSO) 2.76 ± 0.36; (treatment: MLN4924 1 uM, 8 h) 2.86 ± 0.31.

Consider TSQFLSLQCLQALYVDSLFFLRGR [PRAME], for which the protein stability index reads like this: (treatment: DMSO) 2.49 ± 0.67; (treatment: MLN4924 1 uM, 8 h) 2.96 ± 0.82.

Sequence VTLEASRENSKPRAILKPRKVCVG [PPP2R2B] yielded a protein stability index (treatment: DMSO) of 3.54 ± 0.23 and a protein stability index (treatment: MLN4924 1 uM, 8 h) of 3.8 ± 0.32.

In the case of VRTAAIKAMLQLHERGLKLHQTIY [INTS4], the protein stability index is 2.58 ± 0.35 (treatment: DMSO) and 2.44 ± 0.33 (treatment: MLN4924 1 uM, 8 h).

As for SPFSGSLHAPPAFYSTSSGLANGL [VENTX], the protein stability index (treatment: DMSO) was found to be 2.89 ± 0.048 and the protein stability index (treatment: MLN4924 1 uM, 8 h) worked out at 2.96 ± 0.17.

With MERTGGIGDSRPPSFHPHAGGGSQ [DVL3], the protein stability index runs as follows: (treatment: DMSO) 4.5 ± 0.18; (treatment: MLN4924 1 uM, 8 h) 4.69 ± 0.16.

FESHDLLRKGFSCVKNELLPSHPL [POMP]: the protein stability index by setting is: (treatment: DMSO) 2.92 ± 0.31; (treatment: MLN4924 1 uM, 8 h) 3.05 ± 0.42.

On to KLASHTRDTTGVSQMFPSSKARTK [FBF1], for which the protein stability index came out at 4.39 ± 0.16 (treatment: DMSO) and 4.58 ± 0.053 (treatment: MLN4924 1 uM, 8 h).

With ECIYIIEAAPRQCIELYFDEKYSI [NETO1], the protein stability index turned out to be 3.08 ± 0.46 (treatment: DMSO) and 2.95 ± 0.32 (treatment: MLN4924 1 uM, 8 h).

On to PETVRMVLSNMEKLFCIPVHGIRS [IMPA1], for which the protein stability index was determined as 2.65 ± 0.27 (treatment: DMSO) and 2.94 ± 0.3 (treatment: MLN4924 1 uM, 8 h).

GTFQVNFYHDHTKIIICSQNEEYL [PLK2]: the protein stability index (treatment: DMSO) is 2.5 ± 1.1 and the protein stability index (treatment: MLN4924 1 uM, 8 h) was found to be 2.21 ± 0.42.

Take FKDKSTYIESSTKVYDDMAFRYLS [CLPTM1]: the protein stability index was 2.65 ± 0.33 (treatment: DMSO) and 2.57 ± 0.32 (treatment: MLN4924 1 uM, 8 h).

On to LPPCAVRNLQDLARIYIRRTLRNF [PCMTD1], for which the protein stability index (treatment: DMSO) turned out to be 2.06 ± 0.29 and the protein stability index (treatment: MLN4924 1 uM, 8 h) worked out at 2.04 ± 0.26.

Turning to IHLSAPCIYSEVMEALKLQPGLSF [PCMTD1], the protein stability index stood at 2.33 ± 0.67 (treatment: DMSO) and 2.61 ± 0.34 (treatment: MLN4924 1 uM, 8 h).

With SGYHYGVWSCEGCKAFFKRSIQGH [ESR2], the protein stability index was 2.03 ± 0.33 (treatment: DMSO) and 2.52 ± 0.41 (treatment: MLN4924 1 uM, 8 h).

In the case of EIPLVIKYKKAVGLKLKQEKKEAY [WDR88], the protein stability index was 2.88 ± 0.32 (treatment: DMSO) and 2.56 ± 0.13 (treatment: MLN4924 1 uM, 8 h).

As for AGGQTRLQASDRYRDLAGGTGRSA [FCHSD1], the protein stability index (treatment: DMSO) was 4.25 ± 0.41 and the protein stability index (treatment: MLN4924 1 uM, 8 h) stood at 4.35 ± 0.28.

WNQILDPWVYILLRKAVLKNLYKL [PTGFR]: the protein stability index worked out at 2.7 ± 1.1 (treatment: DMSO) and 2.03 ± 0.93 (treatment: MLN4924 1 uM, 8 h).

Consider APLSSRKHVLYVEHRHLNPDTELK [TCF25], for which the protein stability index reads like this: (treatment: DMSO) 3.72 ± 0.35; (treatment: MLN4924 1 uM, 8 h) 3.87 ± 0.51.

Turning to DIHGLRKVIDDTNITRLQLETEIE [KRT18], the protein stability index worked out at 4.28 ± 0.28 (treatment: DMSO) and 4.16 ± 0.46 (treatment: MLN4924 1 uM, 8 h).

On to PKEQLSTSFQWVTKWVDYSNKYGF [PLK2], for which the protein stability index is, setting by setting: (treatment: DMSO) 2.29 ± 0.45; (treatment: MLN4924 1 uM, 8 h) 2.46 ± 0.48.

On to LIFFLFIGVILFSSAVYFAEADEP [KCNA4], for which the protein stability index was found to be 2.19 ± 0.086 (treatment: DMSO) and 2.38 ± 0.29 (treatment: MLN4924 1 uM, 8 h).

As to NQPTRFGKLLLRLPSLRTVSSSVI [NR2F2], the protein stability index is, setting by setting: (treatment: DMSO) 2.44 ± 0.24; (treatment: MLN4924 1 uM, 8 h) 2.5 ± 0.2.

For ASVDYIRKLQKEQQRSKDLESRQR [TFE3], the protein stability index reads like this: (treatment: DMSO) 4.06 ± 0.24; (treatment: MLN4924 1 uM, 8 h) 4.18 ± 0.13.
